Results taken from paper PMC11003769.

What follows are binders tested against HIV-1 BG505.DS.SOSIP.S613A Env trimer (HIV-1 (strain BG505)) (assay: BLI; Trimer-Fab method, Octet RED384, 25 °C, 1% BSA in PBS: trimer (100 nM) held by RM19R-human Fc IgG on anti-human Fc capture tips; Fab as analyte in serial dilutions; global fit to a 1:1 Langmuir model).

Binder	Kd [nM]	koff [s⁻¹]	kon [M⁻¹ s⁻¹]
Fab of mAb 6-6 (Fab, V domains shown) VH: QVQLQVSGPGVVKPSETLSLTCSVSGDSFRRAYFFWSWVRQPPGKGLEWMGGIYTNSESTTYNPSLESRISVSKDASKNQFSLRLTSVTAADTAVYYCTSRAEVYFSGGYYSGGRIDVWGPGVLVTVSS VL: DIQMTQSPSSLSASVGDRVTVTCRASQDINKDLSWFQQKPGEAPTLLIFTASTLQTGVSSRFSGSGSGTSFSLTISSLQPEDVATYFCQQDHSFPLTFGGGTRVDLQ	17	0.00304	179000
Fab of mAb 15-3 (Fab, V domains shown) VH: QVQLQESGPGVVKPSETLSLSCGVSSASILGGYFFWSWIRQSPGKGLEWMGGVYTNSDTTNYNPSLKSRVAISKDTSVNQFSLRLTSVTAADTAVYYCTARATVHSSASYYYGGRIDVWGPGLLVTVSS VL: DIQMTQSPSSLSASLGDRVTVTCRASQGINRDLSWFQQKPGKAPTLLIYEVSNLQTGVSSRFSGSGSGTDFTLTISSLQPEDVATYYCQQDYDFPLTFGGGTKVDLK	0.104	7.98e-06	76500
Fab of mAb 7-2 (Fab, V domains shown) VH: QVQLQASGPGVVKPSETLSLTCAVSGDYVRRGYFYWSWVRQSPGKGLEWIGGIYSNSDTTNYNPSLKSRLTISKDTSNNQFFLTLSSVTAADTAVYYCTSRAKIYSSGSYYAGGRIDVWGPGVQVIVSS VL: DVHMTQSPSSLSASLGDSVTVTCRASQGINKDLSWFQQKPGEAPTLLIYDASTLQTGVSSRFSGSGSGTDFTLTISNLQPEDVATYYCQQDYDFPLTFGGGTKVDLK	0.774	0.000109	141000
